Holding throughout (assay): enzyme inhibition assay (fluorogenic substrate cleavage); one unit of active recombinant human caspase incubated with various concentrations of peptide inhibitor in 100 mM NaCl, 50 mM HEPES, 10 mM DTT, 1 mM EDTA, 10% glycerol, 0.1% CHAPS, pH 7.4, 37°C, 30 min; then 200 μM substrate (Ac-DEVD-MCA for caspases-3 and -7, Ac-IETD-MCA for caspase-8, Ac-LEHD-MCA for caspase-9); apparent Ki = IC50/(1+[S]/Km)
What all share (settings): both partners purified

Assay [1] has as its target T1, Recombinant human caspase-7 (active) (human, UniProt P55210 1-303).
In assay [2] the target is T2, Recombinant human caspase-3 (active) (human, UniProt P42574 1-277).
T2 sequence (P42574 whole entry): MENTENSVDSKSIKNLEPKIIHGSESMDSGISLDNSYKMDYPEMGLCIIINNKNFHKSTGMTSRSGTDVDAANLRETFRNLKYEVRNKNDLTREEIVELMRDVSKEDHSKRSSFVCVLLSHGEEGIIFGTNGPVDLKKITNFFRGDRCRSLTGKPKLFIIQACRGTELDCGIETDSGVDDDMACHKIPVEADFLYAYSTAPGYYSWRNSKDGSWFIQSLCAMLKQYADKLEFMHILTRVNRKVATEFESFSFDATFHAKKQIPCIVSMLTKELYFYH
Assay [3] concerns the target Recombinant human caspase-8 (active) (human, UniProt Q14790 1-479).
For assay [4], the target named is T2, Recombinant human caspase-3 (active). The source holds these as a separate data set.
The target in assay [5] is T1, Recombinant human caspase-7 (active). This is another data set of the same source.

Among the data in paper PMC1931592 (BMC Pharmacology, 2007) are Ki and IC50 values, retold here.

Recombinant human caspase-8 (active), sequence (Q14790 whole entry): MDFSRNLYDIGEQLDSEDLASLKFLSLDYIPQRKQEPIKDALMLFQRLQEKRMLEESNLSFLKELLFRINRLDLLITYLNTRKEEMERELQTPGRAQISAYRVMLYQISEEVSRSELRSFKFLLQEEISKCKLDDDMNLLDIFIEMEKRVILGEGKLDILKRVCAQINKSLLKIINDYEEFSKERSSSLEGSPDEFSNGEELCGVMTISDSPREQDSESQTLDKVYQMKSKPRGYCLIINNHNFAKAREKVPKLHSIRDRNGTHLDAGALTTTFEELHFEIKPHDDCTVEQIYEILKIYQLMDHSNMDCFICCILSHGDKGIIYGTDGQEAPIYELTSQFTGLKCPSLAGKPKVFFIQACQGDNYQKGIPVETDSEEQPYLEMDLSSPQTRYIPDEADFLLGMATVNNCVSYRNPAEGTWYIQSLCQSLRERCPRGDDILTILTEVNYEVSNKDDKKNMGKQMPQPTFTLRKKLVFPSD
T1 sequence (P55210 whole entry): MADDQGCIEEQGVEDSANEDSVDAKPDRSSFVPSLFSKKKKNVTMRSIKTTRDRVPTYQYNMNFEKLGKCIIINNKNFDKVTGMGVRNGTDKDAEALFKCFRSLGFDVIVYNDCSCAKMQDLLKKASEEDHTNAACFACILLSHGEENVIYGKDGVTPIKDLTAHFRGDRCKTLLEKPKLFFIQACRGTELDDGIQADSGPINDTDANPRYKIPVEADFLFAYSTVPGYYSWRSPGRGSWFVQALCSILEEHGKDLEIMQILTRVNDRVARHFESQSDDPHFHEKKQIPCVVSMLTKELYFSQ

B1: Ac-DMQD-CHO (peptide)
peptide: Ac-DMQD-aldehyde
SMILES: CSCC[C@H](NC(=O)[C@H](CC(=O)O)NC(C)=O)C(=O)N[C@@H](CCC(N)=O)C(=O)N[C@H](C=O)CC(=O)O
notes: source: bought: Peptide Institute, Inc (synthetic peptide)
In general, IC50 refers to the midpoint of a concentration-inhibition curve. With B1, the Ki was greater than 200 nM in assay [1], 13.3 ± 0.3 nM in assay [2] and greater than 200 nM in assay [3]. Besides, the IC50 in assay [4] is 193 nM.

B2: Ac-DQTD-CHO (peptide)
peptide: Ac-DQTD-aldehyde
SMILES: CC(=O)N[C@@H](CC(=O)O)C(=O)N[C@@H](CCC(N)=O)C(=O)N[C@H](C(=O)N[C@H](C=O)CC(=O)O)[C@@H](C)O
notes: as for B1
Turning to B2, the Ki in assay [1] was 21.8 ± 1.1 nM; in assay [2] it was 1.27 ± 0.11 nM; in assay [3], 9.75 ± 1.09 nM.

B3: Ac-DEVD-CHO (peptide)
peptide: Ac-DEVD-aldehyde
notes: as for B1
B3: the figures for the Ki in assay [1] and in assay [3] were 4.48 ± 0.21 nM and 0.597 ± 0.095 nM, respectively. Besides, the IC50 in assay [5] was 19.7 nM.

B4: Ac-DNLD-CHO (peptide)
peptide: Ac-DNLD-aldehyde
notes: tetrapeptide designed by the computational APF method; so far not known in any natural caspase substrate; source: synthetic peptide (synthesized by Peptide Institute, Inc)
Consider B4, for which, in assay [3], the Ki is greater than 200 nM.
